This note sets out measurements from patent US20170248602A1 (ALLERGAN, published 2017).

Changes are numbered by the printed parent chain.

In this assay the target is T1, SNAP-25206 uncleaved substrate in PC12 cells (rat (PC12 cells), UniProt P60881 1-206).
T1 construct: also called uncleaved SNAP-25
The assay is described as follows: cell-based assay: Western blot of PC12 lysates, ascites 1:100.

T1 sequence (P60881 whole entry): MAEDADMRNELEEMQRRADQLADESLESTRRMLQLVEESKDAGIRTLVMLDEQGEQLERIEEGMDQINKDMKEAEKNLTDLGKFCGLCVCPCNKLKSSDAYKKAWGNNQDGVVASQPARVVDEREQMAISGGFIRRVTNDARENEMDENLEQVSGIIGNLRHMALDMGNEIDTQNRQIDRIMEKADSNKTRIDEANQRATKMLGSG

B1: α-SNAP-25 mouse monoclonal antibody 2E2A6 (antibody, V domains shown)
VH: QVQLQQSDAELVKPGASVKISCRASGYTFTDHSIHWVKQQPGQGLEWIGYIFPGNGNIEYNDKFKGKATLTADKSSGTAYMQLNSLTSEDSAVYFCKRMGYWGQGTSVTVSS
VL: DVLMTQTPLTLSVTIGQPASISCKSSQSLLYTNGKTYLTWLFQRPGQSPKRLIYLVSELDSGVPDRFSGSGSGTDFTLEITRVEAEDLGVYYCLQSAHFPFTFGSGTKLEIKR
Turning to B1, the binding result is listed as “no binding”.

B2: α-SNAP-25 mouse monoclonal antibody 3C1A5 (antibody, V domains shown)
VH: QVKLQESGAELVKPGASVKISCKASGYTFTDHSIHWVKQKPGQGLEWIGYLFPGNGNFEYNEKFKGKATLTADKSSSTVYMYLNSLTSEDSAVYFCKRMGYWGQGTTVTVSS
VL: B1 VL with L3V, Y31N, F42I, K50Q, E58K, E79K, T81S, A97S
For the molecule B2, the binding result was “no binding”.

B3: α-SNAP-25 mouse monoclonal antibody 1D3B8 (antibody, V domains shown)
VH: QVKLQESGAELVKPGASVKISCKASGYIFTDHALHWVRQKPEQGLEWIGYIFPGNGNIEYNEKFKGKATLTADKSSSTAYMQLNSLTSGDSAMYFCKKMDYWGQGTTVTVSS
VL: DVLMTQTPLSLPVSLGDQASISCRSSQSIVHSNGNTYLEWYLQKPGQSPKLLIYKVSNRFSGVPDRFSGSGSGTDFTLKISRVEAEDLGVYYCFQGSHVPPTFGAGTKLELKR
Regarding B3, the binding result is on record as “no binding”.
